The Immune Epitope Database (IEDB)

What was measured:
Assay in all cases: IEDB peptide-MHC binding, purified MHC/competitive/radioactivity; filed as Kd, often an IC50 or EC50 that approximates it; ≥ and ≤ were set here for values at or beyond the usual limits of such assays
HLA-A*02:06 = conditions: source organism: Vaccinia virus WR
HLA-A*02:03 = conditions: source organism: Vaccinia virus WR
HLA-A*02:02 = conditions: source organism: Vaccinia virus WR
HLA-A*11:01 = molecular target: HLA-A*11:01
HLA-A*68:01 = molecular target: HLA-A*68:01
HLA-A*03:01 = molecular target: HLA-A*03:01
HLA-A*33:01 = molecular target: HLA-A*33:01
HLA-A*31:01 = molecular target: HLA-A*31:01
[1] = source organism: Vaccinia virus WR
[2] = source organism: SARS coronavirus Tor2

ETMYLTMKA
Kd (HLA-A*02:06): 12700 nM | Kd (HLA-A*02:03): 942 nM | Kd (HLA-A*02:02): 7850 nM

QTLISLNSM
Kd (HLA-A*02:06): 7510 nM | Kd (HLA-A*02:03): ≥ 39300 nM | Kd (HLA-A*02:02): 19400 nM

HLMSDNPKA
Kd (HLA-A*02:06): 523 nM | Kd (HLA-A*02:03): 279 nM | Kd (HLA-A*02:02): 56.9 nM

LLLENKSLTI
Kd (HLA-A*02:06): 1320 nM | Kd (HLA-A*02:03): 985 nM | Kd (HLA-A*02:02): 982 nM

ATICLKNEGV
Kd (HLA-A*02:06): 42.5 nM | Kd (HLA-A*02:03): 70.9 nM | Kd (HLA-A*02:02): 436 nM

FTEGKINPLL
Kd (HLA-A*02:06): 85.8 nM | Kd (HLA-A*02:03): 595 nM | Kd (HLA-A*02:02): 150 nM

DAEFVMCLEA
Kd (HLA-A*02:06): 12700 nM | Kd (HLA-A*02:03): 7310 nM | Kd (HLA-A*02:02): 2410 nM

FASADNHPKM
Kd (HLA-A*02:06): ≥ 69800 nM | Kd (HLA-A*02:03): ≥ 47400 nM | Kd (HLA-A*02:02): ≥ 70000 nM

MICCDSRIVV
Kd (HLA-A*02:06): 51.9 nM | Kd (HLA-A*02:03): 392 nM | Kd (HLA-A*02:02): 665 nM

ILDNLRCHSA
Kd (HLA-A*02:06): 297 nM | Kd (HLA-A*02:03): 69.3 nM | Kd (HLA-A*02:02): 972 nM

VMPEKRNVV
Kd (HLA-A*02:06): 3290 nM | Kd (HLA-A*02:03): 23 nM | Kd (HLA-A*02:02): 1100 nM

NTTYDFLARK
Kd (HLA-A*11:01; [1]): 31.8 nM | Kd (HLA-A*68:01; [1]): 9.58 nM | Kd (HLA-A*03:01; [1]): 691 nM | Kd (HLA-A*33:01; [1]): 4510 nM | Kd (HLA-A*31:01; [1]): 5550 nM

SAGFSLWIY
Kd (HLA-A*11:01; [2]): 116 nM | Kd (HLA-A*68:01; [2]): 4040 nM | Kd (HLA-A*03:01; [2]): 572 nM | Kd (HLA-A*33:01; [2]): 17300 nM | Kd (HLA-A*31:01; [2]): 393 nM

YQSFLFWFLK
Kd (HLA-A*11:01; [1]): 0.706 nM | Kd (HLA-A*68:01; [1]): 8.31 nM | Kd (HLA-A*03:01; [1]): 20.6 nM | Kd (HLA-A*33:01; [1]): 3990 nM | Kd (HLA-A*31:01; [1]): 18.4 nM

QTIASKKDK
Kd (HLA-A*11:01; [1]): 766 nM | Kd (HLA-A*68:01; [1]): 265 nM | Kd (HLA-A*03:01; [1]): 317 nM | Kd (HLA-A*33:01; [1]): ≥ 77700 nM | Kd (HLA-A*31:01; [1]): 589 nM

FISPASISSV
Kd (HLA-A*02:06): 2.02 nM | Kd (HLA-A*02:03): 0.111 nM | Kd (HLA-A*02:02): 3.01 nM

IINSVSIIL
Kd (HLA-A*02:06): ≥ 25900 nM | Kd (HLA-A*02:03): 2900 nM | Kd (HLA-A*02:02): 705 nM

SLELIIIHTK
Kd (HLA-A*11:01; [1]): 1300 nM | Kd (HLA-A*68:01; [1]): 8050 nM | Kd (HLA-A*03:01; [1]): 16200 nM | Kd (HLA-A*33:01; [1]): ≥ 53400 nM | Kd (HLA-A*31:01; [1]): 130 nM

LANERYRSA
Kd (HLA-A*02:06): ≥ 77100 nM | Kd (HLA-A*02:03): 554 nM | Kd (HLA-A*02:02): ≥ 31300 nM

SVGTGILFM
Kd (HLA-A*02:06): ≥ 20700 nM | Kd (HLA-A*02:03): 2250 nM | Kd (HLA-A*02:02): 1090 nM

TLISSDGARV
Kd (HLA-A*02:06): 1220 nM | Kd (HLA-A*02:03): 133 nM | Kd (HLA-A*02:02): 142 nM

KASTISWMM
Kd (HLA-A*02:06): 797 nM | Kd (HLA-A*02:03): 556 nM | Kd (HLA-A*02:02): 429 nM

FVDTMSIYIA
Kd (HLA-A*02:06): 1100 nM | Kd (HLA-A*02:03): 2390 nM | Kd (HLA-A*02:02): 154 nM
